Assay results from patent US20240344138A1, “TARGETED THERAPIES IN CANCER” (Feng Biosciences, Inc, priority 2021, published 2024).

What was measured:
[1] = tested on: non-small cell lung cancer (NSCLC); details: cited from earlier work
[2] = tested on: non-small cell lung cancer (NSCLC); assay: Retrospective ANN analysis of Phase 3 trial of tislelizumab with pemetrexed and a platinum agent; format: in vivo, human; details: biomarker positive group (IA or IS)
From the text: A retrospective analysis of 100 RNA signatures from a Phase 3 clinical trial of non-small cell lung cancer (NSCLC) with the anti-PD-1 checkpoint inhibitor tislelizumab in combination with the chemotherapeutic agents pemetrexed and a platinum agent (cisplatin or carboplatin) is run using the ANN method. […] After the retrospective ANN analysis, the biomarker positive group (IA or IS) is shown to have a PFS of 15.0 months with the combination therapy of tislelizumab and chemotherapy.

B1: tislelizumab plus chemotherapy: anti-PD-1 checkpoint inhibitor tislelizumab with pemetrexed and a platinum agent (cisplatin or carboplatin) (antibody, chains of the INN, looked up)
heavy: QVQLQESGPGLVKPSETLSLTCTVSGFSLTSYGVHWIRQPPGKGLEWIGVIYADGSTNYNPSLKSRVTISKDTSKNQVSLKLSSVTAADTAVYYCARAYGNYWYIDVWGQGTTVTVSSASTKGPSVFPLAPCSRSTSESTAALGCLVKDYFPEPVTVSWNSGALTSGVHTFPAVLQSSGLYSLSSVVTVPSSSLGTKTYTCNVDHKPSNTKVDKRVESKYGPPCPPCPAPPVAGGPSVFLFPPKPKDTLMISRTPEVTCVVVAVSQEDPEVQFNWYVDGVEVHNAKTKPREEQFNSTYRVVSVLTVVHQDWLNGKEYKCKVSNKGLPSSIEKTISKAKGQPREPQVYTLPPSQEEMTKNQVSLTCLVKGFYPSDIAVEWESNGQPENNYKTTPPVLDSDGSFFLYSKLTVDKSRWQEGNVFSCSVMHEALHNHYTQKSLSLSLG
light: DIVMTQSPDSLAVSLGERATINCKSSESVSNDVAWYQQKPGQPPKLLINYAFHRFTGVPDRFSGSGYGTDFTLTISSLQAEDVAVYYCHQAYSSPYTFGQGTKLEIKRTVAAPSVFIFPPSDEQLKSGTASVVCLLNNFYPREAKVQWKVDNALQSGNSQESVTEQDSKDSTYSLSSTLTLSKADYEKHKVYACEVTHQGLSSPVTKSFNRGEC
modifications: plus pemetrexed and platinum chemotherapy
In the case of B1, the “hazard ratio (PFS)” value ([1]; tislelizumab plus chemotherapy versus chemotherapy alone) is listed as 0.645, the “median PFS” value ([1]; without stratification into stromal phenotypes) is listed as 9.7 mo and the PFS [2] is listed as 15.0 months.
